The source of these data is US20040058356A1, “Methods for global profiling gene regulatory element activity” (priority 2001, published 2004).

Assay [1] has as its system PC12 cells. In words: EMSA with 32P-labeled transcription factor binding site oligonucleotides, PC12 nuclear extracts. The assay is classed as cell-based, rat. The note with it: treated vs untreated PC12 cells. The procedure: Confirmation of the increase in the transcription factor AP-1 binding activity was performed by electrophoretic mobility shift assay (EMSA). Nuclear extracts obtained from PC cells either treated with NGF-beta or untreated were combined in separate binding reactions. Each reaction also contained a ^32P-labeled oligonucleotide comprising a binding site for a specific transcription factor. […] In contrast, when the oligonucleotide was specific for the OCT1 binding site (lanes 7 and 8), no increase in gel-shifted material was observed.
Background: In EMSA bound probe runs differently from free probe, usually more slowly.

The subject of assay [2] is PC12 cells. Put plainly: Global regulatory element activity profiling with PC12 nuclear extracts. The assay is classed as cell-based, rat. The note with it: treated vs untreated PC12 cells, FIG. 3. The protocol: Rat pheochromocytoma (PC) cells (cell line PC12; ATCC Number CRL-1721) were grown in high glucose Dulbecco's Modified Eagle Medium (DMEM) in the presence of 10% horse serum, and then transferred to serum-free DMEM plus N2 supplement (Invitrogen) containing 200 ng/ml Nerve Growth Factor-beta (NGF-beta; Sigma). After a 5 hour exposure, the cells were removed from the dishes, washed with PBS, and collected by centrifugation for regulatory element activity profiling.
Global regulatory element activity profiling was carried out using nuclear extracts from cells that were either untreated or treated with NGF-beta. Known transcription factor binding sites present in the DNA sequences were counted as described for Jurkat cells. Bars indicate the percentage of DNA fragments containing selected cis sites that were isolated in binding reactions containing nuclear extracts from either untreated (white bars) or NGFbeta-treated (black bars) PC12 cells. It can be seen that NGF treatment led to an increase in binding activity for AP 1, ATF and TCF11 (among others), while other activities, for example, E2F and RFX1, were reduced after NGF treatment.

B1: Nerve Growth Factor-beta (protein, UniProt P01139 122-241, looked up)
Beta-nerve growth factor: SSTHPVFHMGEFSVCDSVSVWVGDKTTATDIKGKEVTVLAEVNINNSVFRQYFFETKCRASNPVESGCRGIDSKHWNSYCTTTHTFVKALTTDEKQAAWRFIRIDTACVCVLSRKATRRG
modifications: Beta-nerve growth factor
notes: Nerve Growth Factor-beta (Sigma) used to treat PC12 cells
Regarding B1, the “AP-1 binding site gel-shifted material (DNA-protein complexes)” value in the assay on PC12 cells [1] (FIG. 4 lanes 3 and 4) is recorded as “significant increase”. In addition, the “OCT1 binding site gel-shifted material” value with PC12 cells [1] (FIG. 4 lanes 7 and 8) is recorded as “no increase”. Besides, in the assay on PC12 cells [2], the “AP 1 binding activity” value was “increase”, the ATF binding activity entry is given as “increase”, the E2F binding activity result was “reduced” and the RFX1 binding activity entry is “reduced”. Besides, in the assay with PC12 cells [2], the TCF11 binding activity entry is listed as “increase”.
